From paper PMC3021567, “Gene expression profiling of connective tissue growth factor (CTGF) stimulated primary human tenon fibroblasts reveals an inflammatory and wound healing response in vitro” (Molecular Vision, 2011)

Molecular target: T1, recombinant human connective tissue growth factor (human, UniProt P29279 27-349)
T1 construct: signal peptide in the construct; connective tissue growth factor (CTGF), human, cDNA for full-length rhCTGF aa 1-349, Swiss-Prot P29279; secreted into the supernatant of HEK293T cells; The purified protein runs as two bands, 36 kDa (unglycosylated) and 38 kDa (glycosylated); No tag is mentioned; also called hCTGF; rhCTGF
T1 sequence (looked up): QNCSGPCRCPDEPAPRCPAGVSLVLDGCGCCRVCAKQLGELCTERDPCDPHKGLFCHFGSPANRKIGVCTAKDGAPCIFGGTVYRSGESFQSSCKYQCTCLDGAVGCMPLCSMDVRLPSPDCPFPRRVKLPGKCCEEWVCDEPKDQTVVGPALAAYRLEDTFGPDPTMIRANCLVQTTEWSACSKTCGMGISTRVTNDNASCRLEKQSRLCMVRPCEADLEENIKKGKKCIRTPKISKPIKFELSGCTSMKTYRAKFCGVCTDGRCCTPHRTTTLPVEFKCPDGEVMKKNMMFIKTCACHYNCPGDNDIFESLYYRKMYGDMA
Experiment: SPR; BIACORE 2000; biotinylated BMP-2 immobilised on a streptavidin-coated CM5 chip at about 500 RU; CTGF flowed over at 10 ul/min, 25 °C; association 5 min, dissociation 3 min; regeneration with 4 M MgCl2; kinetic data fitted to a 1:1 Langmuir model; two independent experiments, at least six concentrations; apparent KD
Conditions: both partners purified

- Kd: 0.4 µM
B1: bone morphogenetic protein 2 (ligand, UniProt P12643 283-396, looked up)
chain: QAKHKQRKRLKSSCKRHPLYVDFSDVGWNDWIVAPPGYHAFYCHGECPFPLADHLNSTNHAIVQTLVNSVNSKIPKACCVPTELSAISMLYLDENEKVVLKNYQDMVVEGCGCR
modifications: biotin (biotinylated BMP-2; site not stated)
notes: bone morphogenetic protein 2 (BMP-2); also called BMP-2; source: expressed and purified as described [19]
